Test results from US20150266977A1 (AbbVie / Abbott, published 2015).
Where two headings read alike, the source gives them in different places.

T1: recombinant human sclerostin (human, UniProt Q9BQB4 24-213)
T1 construct: biotinylated in the ELISAs; also called hu sclerostin; hu scl
T1 sequence: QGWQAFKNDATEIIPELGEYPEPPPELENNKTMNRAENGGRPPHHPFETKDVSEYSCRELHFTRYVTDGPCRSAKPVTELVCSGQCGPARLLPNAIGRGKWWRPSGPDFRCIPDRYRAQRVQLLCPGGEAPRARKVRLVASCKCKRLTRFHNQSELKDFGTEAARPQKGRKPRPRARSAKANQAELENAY

T2: recombinant mouse sclerostin (mouse, UniProt Q99P68 24-211)
T2 construct: also called ms sclerostin; murine sclerostin
T2 sequence (looked up): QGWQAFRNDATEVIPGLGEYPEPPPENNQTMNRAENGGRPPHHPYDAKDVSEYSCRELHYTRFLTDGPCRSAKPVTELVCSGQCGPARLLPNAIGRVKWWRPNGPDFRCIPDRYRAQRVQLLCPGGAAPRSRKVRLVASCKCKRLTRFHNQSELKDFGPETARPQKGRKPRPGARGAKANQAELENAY

T3: recombinant rat sclerostin (rat, UniProt Q99P67 24-213, limits assumed)
T3 sequence (looked up): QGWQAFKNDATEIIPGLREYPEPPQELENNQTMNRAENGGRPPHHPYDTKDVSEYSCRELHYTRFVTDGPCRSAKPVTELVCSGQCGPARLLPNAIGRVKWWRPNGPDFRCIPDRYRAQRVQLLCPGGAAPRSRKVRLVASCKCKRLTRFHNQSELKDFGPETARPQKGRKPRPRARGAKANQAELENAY


Legend:
[1] = molecular target: T1, recombinant human sclerostin; test: capture ELISA, biotin-sclerostin
[2] = molecular target: T1, recombinant human sclerostin; test: SPR
Description: (§1) The binding of antibodies or anti-sclerostin-TNF DVD to purified recombinant human, cynomolgus monkey (cyno), rat and mouse sclerostin and TNFα was determined by surface plasmon resonance-based measurements with a Biacore T100 or T200 instruments (GE Healthcare Life Sciences, Piscataway, N.J., USA) using running HBS-EP+ (10 mM HEPES [pH 7.4], 150 mM NaCl, 3 mM EDTA, and 0.005% surfactant P20) containing additional 150 mM NaCl, and/or 10 mg/ml carboxymethyl dextran, 0.1 mg/ml BSA at 25° C. All chemicals were obtained from GE Healthcare Life Sciences, Piscataway, N.J., USA or otherwise from a different source as described in the text. Approximately 10,000 RU (or 3000 RU when CM3 chip was used) of goat anti-mouse or anti-human IgG (Fcγ) fragment specific polyclonal antibody (Pierce Biotechnology Inc, Rockford, Ill.) diluted in 10 mM sodium acetate (pH 4.5) was directly immobilized across a CM5 (or CM3) research grade biosensor chip using a standard amine coupling kit according to manufacturer's instructions and procedures at 15 μg/ml. Unreacted moieties on the biosensor surface were blocked with ethanolamine. Modified carboxymethyl dextran surface in flowcells 2, 3 and 4 were used as a reaction surface. Modified carboxymethyl dextran in flow cell 1 was used as the reference surface. Biaevaluation T100 software version 2.0.2, GE Healthcare Life Sciences was used to simultaneously fit association and dissociation phases of all injections (using 1:1 fit analysis with local Rmax). Purified antibodies were diluted in running buffer for capture across goat anti-mouse or anti-human IgG specific reaction surfaces. Antibodies to be captured as a ligand (1 μg/ml) were injected over reaction matrices at a flow rate of 10 μl/minute. The association and dissociation rate constants, kon (unit M-1 s-1) and koff (unit s-1) were determined under a continuous flow rate of 50 μl/minute. […] At the end of each cycle the surfaces were regenerated with 10 s injection of 50 mM NaOH or/and by 10 s injection of 10 mM Glycine pH1.5 at a flow rate of 100 μl/min.

[3] = molecular target: Rhesus/cynoTNFa (Rhesus/cyno); test: cell-based or functional assay
[4] = molecular target: T1, recombinant human sclerostin; test: SPR; remark: listed apart in the source
Description: (§2) Approximately 10,000 RU (or 3000 RU when CM3 chip was used) of goat anti-mouse or anti-human IgG (Fcγ) fragment specific polyclonal antibody (Pierce Biotechnology Inc, Rockford, Ill.) diluted in 10 mM sodium acetate (pH 4.5) was directly immobilized across a CM5 (or CM3) research grade biosensor chip using a standard amine coupling kit according to manufacturer's instructions and procedures at 15 μg/ml. Unreacted moieties on the biosensor surface were blocked with ethanolamine. Modified carboxymethyl dextran surface in flowcells 2, 3 and 4 were used as a reaction surface. Modified carboxymethyl dextran in flow cell 1 was used as the reference surface. Biaevaluation T100 software version 2.0.2, GE Healthcare Life Sciences was used to simultaneously fit association and dissociation phases of all injections (using 1:1 fit analysis with local Rmax). Purified antibodies were diluted in running buffer for capture across goat anti-mouse or anti-human IgG specific reaction surfaces. Antibodies to be captured as a ligand (1 μg/ml) were injected over reaction matrices at a flow rate of 10 μl/minute. The association and dissociation rate constants, kon (unit M-1 s-1) and koff (unit s-1) were determined under a continuous flow rate of 50 μl/minute. […] At the end of each cycle the surfaces were regenerated with 10 s injection of 50 mM NaOH or/and by 10 s injection of 10 mM Glycine pH1.5 at a flow rate of 100 μl/min. Instrument appropriate Biaevaluation software, GE Healthcare Life Sciences was used to simultaneously fit association and dissociation constants as well as KD (using 1:1 global fit analysis with local Rₘₐₓ). Binding was recorded as a function of time and kinetic rate constants are calculated. In this assay, on-rates as fast as 10⁷ M⁻¹ s⁻¹ and off-rates as slow as 10⁻⁶ s⁻¹ can be measured.

[5] = molecular target: T4, recombinant cynomolgus monkey sclerostin (cynomolgus monkey); test: SPR
T4 construct: also called cyno sclerostin; Cyno sclerostin
Description: as §2

[6] = molecular target: T2, recombinant mouse sclerostin; test: SPR
[7] = molecular target: T3, recombinant rat sclerostin; test: SPR
[8] = molecular target: T4, recombinant cynomolgus monkey sclerostin; test: SPR; remark: listed apart in the source
Description: as §1

[9] = molecular target: T5, recombinant human TNF-α (human, UniProt P01375 77-233); test: SPR
T5 construct: also called huTNF; Human TNFa
Description: as §1

[10] = molecular target: T5, recombinant human TNF-α; test: cell-based or functional assay

T5 sequence (P01375 77-233 limits assumed): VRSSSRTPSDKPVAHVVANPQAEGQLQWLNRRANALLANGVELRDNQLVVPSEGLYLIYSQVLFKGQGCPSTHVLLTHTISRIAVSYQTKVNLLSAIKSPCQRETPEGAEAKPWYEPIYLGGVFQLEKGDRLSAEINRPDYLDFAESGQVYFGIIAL
Rhesus/cynoTNFa (Rhesus/cyno), sequence (P48094 whole entry): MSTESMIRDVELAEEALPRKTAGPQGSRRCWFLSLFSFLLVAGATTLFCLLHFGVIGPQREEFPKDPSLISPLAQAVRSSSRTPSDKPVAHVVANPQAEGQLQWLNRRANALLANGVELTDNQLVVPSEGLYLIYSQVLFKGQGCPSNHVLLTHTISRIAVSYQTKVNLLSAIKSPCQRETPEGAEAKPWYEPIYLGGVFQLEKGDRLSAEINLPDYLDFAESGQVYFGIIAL

Binder	EC50 [1] [nM]	Kd [4] [nM]	koff [4] [s⁻¹]	kon [4] [M⁻¹ s⁻¹]	Kd [5] [nM]	koff [5] [s⁻¹]	kon [5] [M⁻¹ s⁻¹]	binding result [6]	binding result [7]	further results
MSL10 (antibody, V domains shown, fully human mAb) VH: EVQLVESGGGLVQPGGSLRLSCTASGFTFDDYALHWVRQAPGKGLEWVSGISWHGDFIDYADSVKGRFTISRDNSKNTLYLQMNGLRVEDMAIYYCAGNNRGYGGLDVWGQGTTVTVSS VL: not shown	0.427	–	–	–	–	–	–	–	–	–
MSL9-8 (antibody, V domains shown, fully human mAb) VH: EVQLVESGGGLVQPGGSLRLSCAASGFRFTDYWMTWVRQAPGKGPEWVANINEDGSKKHYADSVKDRFIISRDNAKKSLSLQMKRMRAEDTAVYYCAADLNPHWLVGWGQGTLVTVSS VL: QPVLTQPPSVSVAPGKTARITCGGNNIGSRRVHWYQQKPGQAPVLVVYDDNDRPSGIPERFSGSKSGNTATLTISRVEAGDEADYYCQVWHSGRVFGTGTKVTVLG	12.3	–	–	–	–	–	–	–	–	–
AE10-6 AM7-GS-MAK195-21 (bispecific antibody, human IgG1, kappa, L234A L235A, DVD-Ig: outer AE10-6 AM7, inner MAK195-21) heavy: not shown light: QAVVTQEPSLTVSPGGTVTLTCGSSTGTVTIDHYPYWFQQKPGQAPRTLISDTDDKHSWTPARFSGSLLGGKAALTLSGAQPEDEAEYYCLLDYGGRFVFGGGTKLTVLGGGSGGGGSGDIQMTQSPSSLSASVGDRVTITCRASQLVSSAVAWYQQKPGKAPKLLIYWASARHTGVPSRFSGSGSGTDFTLTISSLQPEDFATYYCQQHYKTPFTFGQGTKLEIKRTVAAPSVFIFPPSDEQLKSGTASVVCLLNNFYPREAKVQWKVDNALQSGNSQESVTEQDSKDSTYSLSSTLTLSKADYEKHKVYACEVTHQGLSSPVTKSFNRGEC	–	–	–	–	–	–	–	–	–	Kd [2]: < 0.00015 nM; koff [2]: < 1e-06 s⁻¹; kon [2]: 6.8e+06 M⁻¹ s⁻¹; L929 TNF neutralization IC50 [3]: > 2 nM
MSL10-AM2 (antibody, V domains shown) VH: EVQLVESGGGLVQPGRSLRLSCAASGFTFDDYALHWVRQAPGKGLEWVSGIGWEDDMIDYADSVKGRFTISRDNAKNSLYLQMNSLRVEDTALYYCAGNSRGYGGLDVWGQGTTVTVSS VL: not shown	–	0.065	7.6e-06	120000	0.77	8.8e-05	110000	no binding	no binding	–
MSL10-AM2.2 (antibody, V domains shown) VH: EVQLVESGGGLVQPGRSLRLSCAASGFTFDDYALHWVRQAPGKGLEWVSGIGWEDDMIDYADSVKGRFTISRDNAKNSLYLQMNSLRVEDTALYYCAGNSRGYGGLDVWGQGTTVTVSS VL: not shown	–	0.33	0.00011	340000	0.11	6.7e-05	600000	no binding	no binding	–
MSL10-AM5 (antibody, V domains shown) VH: EVQLVESGGGLVQPGRSLRLSCAASGFTFDDYALHWVRQAPGKGLEWVSGISWHGDFIDYADSVKGRFTISRDNAKNSLYLQMNSLRVEDTALYYCAGNNRGYGGLDVWGQGTTVTVSS VL: not shown	–	0.97	7.4e-05	77000	1.1	8.7e-05	82000	no binding	no binding	–
MSL10-AM3.2 (antibody, V domains shown) VH: EVQLVESGGGLVQPGRSLRLSCAASGFTFDDYALHWVRQAPGKGLEWVSGIGWDEDMIDYADSVKGRFTISRDNAKNSLYLQMNSLRVEDTALYYCAGNNRGYGGLDVWGQGTTVTVSS VL: not shown	–	0.9	0.00025	280000	0.36	0.0001	300000	no binding	no binding	–
MAK199-1-GS-AE10-6 AM7 QL (bispecific antibody, human IgG1, lambda, L234A L235A, DVD-Ig with CH QL) heavy: EVQLVQSGAEVKKPGASVKVSCKASGYTFANYGIIWVRQAPGQGLEWMGWINTYTGKPTYAQKFQGRVTMTTDTSTSTAYMELSSLRSEDTAVYYCARKLFTTMDVTDNAMDYWGQGTTVTVSSGGGGSGGGGSEVQLVQSGAEVKKPGASVKVSCKVSGYTLTELSMHWVRQAPGKGLEWMGGFDPEDGETIYAQKFQGRVTMTEDTSTDTAYMELSSLRSEDTAVYYCATDTVGYWEKFFQHWGQGTLVTVSSASTKGPSVFPLAPSSKSTSGGTAALGCLVKDYFPEPVTVSWNSGALTSGVHTFPAVLQSSGLYSLSSVVTVPSSSLGTQTYICNVNHKPSNTKVDKKVEPKSCDKTHTCPPCPAPEAAGGPSVFLFPPKPKDQLMISRTPEVTCVVVDVSHEDPEVKFNWYVDGVEVHNAKTKPREEQYNSTYRVVSVLTVLHQDWLNGKEYKCKVSNKALPAPIEKTISKAKGQPREPQVYTLPPSREEMTKNQVSLTCLVKGFYPSDIAVEWESNGQPENNYKTTPPVLDSDGSFFLYSKLTVDKSRWQQGNVFSCSVLHEALHNHYTQKSLSLSPGK light: DIQMTQSPSSLSASVGDRVTITCRASQDISQYLNWYQQKPGKAPKLLIYYTSRLQSGVPSRFSGSGSGTDFTLTISSLQPEDFATYFCQQGNTWPPTFGQGTKLEIKRGGSGGGGSGQAVVTQEPSLTVSPGGTVTLTCGSSTGTVTIDHYPYWFQQKPGQAPRTLISDTDDKHSWTPARFSGSLLGGKAALTLSGAQPEDEAEYYCLLDYGGRFVFGGGTKLTVLGQPKAAPSVTLFPPSSEELQANKATLVCLISDFYPGAVTVAWKADSSPVKAGVETTTPSKQSNNKYAASSYLSLTPEQWKSHRSYSCQVTHEGSTVEKTVAPTECS	–	–	–	–	–	–	–	–	–	Kd [2]: < 0.00016 nM; koff [2]: < 1e-06 s⁻¹; kon [2]: 6.1e+06 M⁻¹ s⁻¹; Kd [8]: < 0.0001 nM; koff [8]: < 1e-06 s⁻¹; kon [8]: 9.9e+06 M⁻¹ s⁻¹; Kd [9]: 0.007 nM; koff [9]: 3e-05 s⁻¹; kon [9]: 4.2e+06 M⁻¹ s⁻¹; L929 TNF neutralization IC50 with 50 nM SOST [10]: 0.032 nM; L929 TNF neutralization IC50 without 50 nM SOST [10]: 0.033 nM
MSL17 (antibody, V domains shown, fully human mAb) VH: EVQLLESGGGLVKPGRSLRLSCVAYGFSLTGYSMNWVRQAPGKGLEWVSSISPNDTYRHYADSVKGRFTISRDNAKNSLYLQMNSLRAEDTAVYYCARDTNYRDSGGYFYDVFDIWGQGTMVTVSS VL: SYELTQPPSVSVAPGETARVTCEGNNIGNKGVHWYQQKPGQAPVLVVYDDSDRPSGIPERFSGSNSGNTATLTISRVEAGDDADYYCQVWDSSSDVFGSGTKVTVLG	0.778	–	–	–	–	–	–	–	–	–
